Experiment: soluble on expression in E. coli; label from the status in PepcDB or PDB records

Sequence | soluble on expression in E. coli
MVDRVIEMAIQQQPMTEPVGIPVIILKEGTQRSYGREALRANIMAVRAIAQILKTTYGPKGMDKMLVDSLGDITITNNGATILDKMDVAHPAAKMLVQISKGQEDEAGDGTKTTVIFAGELLKEAEKLLDINIHPTIIVEGYKEALRKASEVIESIAEPVSYDDVEKLKLIAKTSLNSKAVAEARDYFAELAVEAVRTVAERRGDRWYVDLNNIQIVKKHGGSLRDTRLVRGIVLDKEVVHPDMPRRVENARIALLDTPLEIEKPEIDLEISITSPEQIKALYEKQERILQEKIEKIAATGANVVITQKGIDDVAQHFLAKKGILAVRRVKRSDIEKIARATGARIVTDIEDLRPEDLGYAELVEERKVGEDKMVFIEGAKNPKSVTILLRGGFERLVDEAERSLHDALSVVADAIMDGKIVAGGGAVEAEVAKVLYEYASKLPGKTQLAVEAFARAVEALPQALAHNAGHDPIEVLVKLRSAHEKPENKWYGVDLDTGEIVDMWSRGVLEPMRVKLNALKAATEVASLILRIDDVIAARKEEEEKEEKRGGEEE | soluble
MTAQDYLNGKLAAANGPLADDWKNLKELWEKKLWHQLTVLTRSLVKKPQFVASTDMHEFYRLFVAEWELRVNPLQLVEICISIAQNIATKDKQKSMEFLSKIGNVINKDKIAVARLHTGEIEARLENKDKNGQIIDLKSIRTQIDSTQHEVDSLVGVTEVHAPFYRVSSLYLREVGDFAGYYREALRYLGVEDANNLTTEQKQVHAVLLGFAALLGENVHNFGELLAHPILKSLEGTRERWIVDVLLAFNSGDLTRFFSLEGDWGGWDDLKKQKDFLTAKIRLMAVMELAVSRPTKARSVSFKEIATKCQIPFDEVEFLVMKALSKDLIRGDINQVEQVVYVTWVQPRVLDNPQIMQMATRISAWRNDVNSMEGIVSKEAREILTQN | not soluble
QERFVHVHKMITTGTIEEKIDVMLESKQTLNDQIIQSENWITELSTQELEEL | soluble
MSTIPSEIINWTILNEIISMDDDDSDFSKGLIIQFIDQAQTTFAQMQRQLDGEKNLTELDNLGHFLKGSSAALGLQRIAWVCERIQNLGRKMEHFFPNKTELVNTLSDKSIINGINIDEDDEEIKIQVDDKDENSIYLILIAKALNQSRLEFKLARIELSKYYNTNLH | soluble
MRQAASIACIGGANVDRKARLLTPFRLGTSHPVTTTQTAGGVARNIAENLGRLAQPVSLVSTVGDDRDGQWLVDVTSRYVNTSFIVRTPKANTGTYTAVLDERGEMVLALADMAIYHPEPRRPPLPRVSVSGG | not soluble
MGSDKIHHHHHHEEPCPENGRVTFTVAQTRATQEGTFEKGNSIGVFAIEPKTGVYWATNNKYTYDGRAFKPATEEDNIIVTVGTDLDFYVYYPFKEGQTDITAISHAIGDQQEKSGWLSADFLTASYTDVIQDYTIPLHFEHRLSTVEVRVEGSDRVDGARMENVKYGSRFNLLTGKTVTDETRGSYAMYRYSSGNLTTVFRMTIPAQTLTTTSNYITLTGTPDMKLRGTSDMTTEPGRIHNYRIDYKIRITVLDYPQGGSTTGAGLYDMGSTCTVTASVNGGYEFAGWYEDGRIVSNDTRYSFEVLSDRTLEPRYRNYGGWSVTLTANPSVIGWQGGRSSLVAGASRGVFVNGVAENTQTAVPSLSGGAEGFLLSGNTVTVSENPSGSSRSCVFTASHGGSSATATITQEGSPVSYYFSYADGGTSHTEYPDDSSAGSFILDITSYKKTGNSTKALSWNASGDSWIHVNGSSVSYDENPAKERRTGLVTLKQDESGKTLSLKIVQPGKTSIDIEQ | not soluble
MTTAVARLQPSASGAKTRPVFPFSAIVGQEDMKLALLLTAVDPGIGGVLVFGDRGTGKSTAVRALAALLPEIEAVEGCPVSSPNVEMIPDWATVLSTNVIRKPTPVVDLPLGVSEDRVVGALDIERAISKGEKAFEPGLLARANRGYLYIDECNLLEDHIVDLLLDVAQSGENVVERDGLSIRHPARFVLVGSGNPEEGDLRPQLLDRFGLSVEVLSPRDVETRVEVIRRRDTYDADPKAFLEEWRPKDMDIRNQILEARERLPKVEAPNTALYDCAALCIALGSDGLRGELTLLRSARALAALEGATAVGRDHLKRVATMALSHRLRRDPLDEAGSTARVARTVEETLP | soluble
MGHHHHHHSHMWKDFIDHISSLLHSVEVEVSYFAAGIIAHLISRGEQAWTLSRSQRNSLLDDLHSAILKWPTPECEMVAYRSFNPFFPLLGCFTTPGVQLWAVCAMQHVCSKNPSRYCSMLIEEGGLQHLYNIKDHEHTDPHVQQIAVAILDSLEKHIVRHGRPPPCKKQPQARLN | not soluble
MTEAEILRLIRRVSGISQQADEQTTQPDSVTAENYARVVAEVMRRDGIQLNDADMRDIRIRVLEMLAYNRRVELYREKEKITYHWKKPERLRR | not soluble
DKKQLVLVLCASGATSSMLANAITKGAKQEGVNVESIAMAYGQHKDVIADYDLIILAPQMASMYEELKADCASKGTKSATTTGKEYVKLTRDPVGALKFALDIINE | not soluble
MSYSPPQPPQRQYSSTLNVDCVDGVYRSQQQVSPLTKQVNHLAYEIPKNKYANNPWNYAPEFLKVFGDLRVHIGGKAVFDCVLLGSPRPRVCWLFNEDKLRFSDVIIEDTADVCRLTIPYVQMHHFGTFTVLCENEVGRATAQAELLPLYE | not soluble
MSLKQLPKREELPENLTWDLTKIFSSDQEFDEKYLELSEELKQSEKHKGTLDQGASQFLNAIEFVLRVYRQTEVIYVYAHLKNDQDTGNTDYQALYARASSLFSKVSEAVSWFEPEILQLSDDQIWQYFKEEPKLEVYRHYIQQIVDNRAHVLSAEQESLLAGAGEIFDASSDTFAVLNNADLVFPTIEGENGEIVQLSHGVYGQLLESTDRRVREAAFKGLYSVYEQFRNTFASTLGTHIKGHNFKAKVRNYSSAREASLSNNHIPESVYDTLVDVVNKHLPLLHRYMELRKRLLEVEKLHMYDLYTPVLGEAPITFTYEEAKEKALEALKPMGEEYMAIVEKAFSERWIDVVENKGKRSGAYSSGSYDTNPYILLNWHDTLDQLFTLVHEMGHSVHSYFTRSNQPYVYGDYSIFLAEIASTTNENILTEYLLETEKDPRVRAYVLNHYLDGFKGTVFRQTQFAEFEHFMHTEDEKGVPLTSEYLSDSYGKLNAKYYGPAVEEDPEIKFEWSRIPHFYYNYYVFQYSTGFSAASALAKKILNQEPEALENYLAYLKAGNSDYPVEVMKKAGVDMTQAAYIEDAMSMFEQRLNELEELIDREGHHHHHH | soluble
MRDPLCDESYLLKTIESNRKFISKRKEKIIGLKADIENGIQRYPRDNQSIIYITFSQMFMYGMNMLLAKYSLGNHPDTMIDDYLDNITYLENCGEEEAGYINLLWMVGLGILLEMDKEVLKRLARVIERQRIEDALMDFLLKACDIGWNHSTTKYEKKNPYEKTVEIIKIALHDKDKEAASKRLEKYMEKEWFKGHYDFGWRNAHKEPGYYGFWSFDTAALAKILGLDDSALKDNNHYPYDLAHYKNGMTFDLSWYSEPREEEVREETVVYGIPGNPLLERIIPGRFHSFVNEIINDYKTLPDEEFWKKYNLKEIWFDVEEYKEDNKDKNLLGTIIVFMLVDKDYILQLDYKEELIDYIENIHNYWPKEEVKLISFELDNDQQYYAYVPKDAEAGSLYEVKVTEVEKIEEV | not soluble
METFYTIGRSPRADIRIKSQFVSRIHAVLVRKSSDDVQAAYRIIDGDEDGQSSVNGLMINGKKVQEHIIQTGDEIVMGLEHHHHHH | not soluble
MGSDKIHHHHHHVRVNVKSHGPRATFPAAPCLHRNPKVKLRLFPQEPAGLHLLSQMARQIVLATATLAEILGVPATEHNRLVEDMHDHEAKSAELHFALLTHMRTSFVNPLPREDMYALSRYLNEAMEKLDAAAELVALYKLERLPRRAADQLEIISRQAELTVDAMRQLNNLDDLEDYWIEILRLAKRAERTHRVWVADMIKDMKWAQYARNRDIANQLVEVTKDMRRIATQVGSIIVKES | not soluble
MEWTEEIVSKGFALYVALSKKGFITSKEDEYFQWYEERGVQDFIRKVIEPTGKVMIFLDEQDGVIQMVPEVENETMSYTNDDLKKELGFKDNKEIHLFYFILFILIAELEQPYDTESADRMYLPMDELLDKMNGYIEQYERLGEEKLEELSDEYDVDVAGIVEAWGRMADFKEGATSHIRTKDNRRMYIEKTLKFLEKEKLIRIREHTNISVTNKMKNIISHYYHNVENKSKIHDLLLVTREGTVGEEEE | not soluble
MKMVTGAVASVLEDEATDTSDSEGSCGSEKDHFYSDDDAIEADSEGDAEPCDKENENDGESSVGTNMGWADAMAKVLNKKTPESKPTILVKNKKLEKEKEKLKQERLEKIKQRDKRLEWEMMCRVKPDVVQDKETERNLQRIATRGVVQLFNAVQKHQKNVDEKVKEAGSSMRKRAKLISTVSKKDFISVLRGMDGSTNETASSRKKPKAKQTEVKSEEGPGWTILRDDFMMGASMKDWDKESDGPDDSRPESASDSDT | not soluble
MAHHHHHHMPSDGEGKVQQVNIDEIDAVTGFKKAELYVWNAYAAAFLAEGGEPETDVEAWIDDFCQRSEESGAVFDRNFVKSVCTLGIYAGPRDEFQQRSGCGKATYASGDTYEGEFFEGKKHGRGQYIFVSKGRSEADRVVSKEVELLTSAGKDAKAMVTEIATKLQLGRHVVEGIMQYGQRPCYHGDYVRGKRTGRGVMKNKDGTLYQGEFLENKRHGQGVYYYLNGDVYSGNWKAGAKDGYGTYHFAEGSEYRGEWVRGNFVQGQWILQGGSYYEGKFDKKNRPLDDAASLHYPSIQMAQTGAFRRGIWAPTSALQVCSEVPVDGMAWAD | soluble
MKTVRCSILGFGAIGQGVAEVLLMKKEYLESIGLEIIVVAVVDSRGATINPEGVDLADCLARKRTTGTVAIEKITGVEVIKSIDHDLVIETTPTNIVTGGAGLQNMFAAFEIGKDVITSNKGPLTLKYRELMEAAKVAGSSFRFEATVGGSMPIINLANEVLAGNRLKSIKGILNGTCNYILTRMLEERASYKDILAESMELGIAETDPTYDVDGIDTACKLVILANAIFGLNATYKDVEVTGITKITPEALEMAYERGHVIKLIGEVSRERIHVAPRLVPINHPLDVRGTLNVASIDTELAGEITVTGKGAGPVETASAILSDLIAIYGNQLEHHHHHH | soluble
MLIFEGKEISTDSEGYLKETTQWSEALAVAIAANEGIELSAEHWEVVRFVREFYLEFNTSPAIRMLVKAMANKFGEEKGNSRYLYRLFPKGPAKQATKIAGLPKPVKCI | not soluble
MLNTHSCIFHRGVNGSEPLLPVVNGVNICGNPRIISCCLLPLVNPCKPMSTGFDFVAIKKSRTFTAIEIRHKNMRKMAEQQIRCAKC | not soluble
MHIVIVGAGAVGGFFGGLLHESGTKVTFVARGKSLDALQRRGMRLHDASGVRDIRVPVVEDLSHVPDADVVILATKTLGSVDVPKNLPKSAVLVTTQNSVEMPHIAVEALGVDRVIPGVVRSFLTKRGPAEAEFSGGIFTFTFGCMSEATRGIVDKLAHVLDRAGIEPVVHPAIMTDIWFKAMFVTCFGALGALVNQPLGVVRTTYRDDFKALINEVVTAGQAHGVDFPEDVVDRVLAFADAQPKGATSSMQRDLANGLPSELDAQAGAVVRMAQRVGVDARLHHLVGNVLSHKHSD | soluble
MGSDKIHHHHHHMEETAETPAAVIPPPPPEDEPAELPATLGFVSHQPVMDRQQRVVAYDFFVRQGKRNIEAGKQQEFDRLLLATLHNMDIFRLLAYRRAFVHIAMTSLDDPQLRGMPAGSVIFVLEPLPGMVVAEHMLRQLDELQKLGLRFALEPAAYDQNMLSPALQADLFSRVDFMVLDFAGPSTRVLAPILDQLPKRYPGARWLARNVGTAEDMDVCLRAPGHNRFALFHGPFVTTAHALEGGKVDTNQTRVLQIMRLLRTNADPKEVEAQFKLDSVLLFKLLRFINSPIHGLSRKVQTIEETLLLLGRETLFKWLSMLLFTSRKEDGTALSLLEKSLIRARFMEKLGGYRGNKLEAEHLFLTGMFSLLDVLLNQPFPDVLDPLELPLTVREAVVERKGIFAPHLALAMACEQGDNVQIEALAKVLDFDLDLANQYYLDSVVWAQVVLRDSEVHNNVEAV | not soluble
